Reference: patent US20180355046A1 (Boehringer Ingelheim, published 2018)

Target: human TrkB receptor on cells (human, UniProt Q16620 32-822)
Assay: cell-based or functional assay

human TrkB receptor on cells, sequence (Q16620 32-822): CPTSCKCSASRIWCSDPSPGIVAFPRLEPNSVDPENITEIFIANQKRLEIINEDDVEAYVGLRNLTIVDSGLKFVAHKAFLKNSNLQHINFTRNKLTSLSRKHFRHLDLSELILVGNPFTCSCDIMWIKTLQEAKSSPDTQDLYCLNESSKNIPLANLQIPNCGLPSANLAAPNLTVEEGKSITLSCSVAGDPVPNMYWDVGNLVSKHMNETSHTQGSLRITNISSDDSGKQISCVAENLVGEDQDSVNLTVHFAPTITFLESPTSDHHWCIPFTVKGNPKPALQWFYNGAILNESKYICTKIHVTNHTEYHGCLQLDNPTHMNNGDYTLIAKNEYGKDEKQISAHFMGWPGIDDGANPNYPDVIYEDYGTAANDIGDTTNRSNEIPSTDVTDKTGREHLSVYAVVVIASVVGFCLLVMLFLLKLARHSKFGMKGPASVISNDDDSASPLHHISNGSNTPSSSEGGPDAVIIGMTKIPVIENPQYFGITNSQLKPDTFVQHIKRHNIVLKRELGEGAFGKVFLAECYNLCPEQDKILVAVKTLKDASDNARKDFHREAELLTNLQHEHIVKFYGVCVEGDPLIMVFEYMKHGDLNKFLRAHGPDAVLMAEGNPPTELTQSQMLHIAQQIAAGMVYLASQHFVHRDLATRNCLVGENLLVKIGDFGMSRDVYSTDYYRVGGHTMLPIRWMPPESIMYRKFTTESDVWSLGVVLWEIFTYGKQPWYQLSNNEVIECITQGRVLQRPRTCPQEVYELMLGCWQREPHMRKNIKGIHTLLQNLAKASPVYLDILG

B1: brain-derived neurotrophic factor (BDNF) (ligand, UniProt P23560 129-247, looked up)
chain: HSDPARRGELSVCDSISEWVTAADKKTAVDMSGGTVTVLEKVPVSKGQLKQYFYETKCNPMGYTKEGCRGIDKRHWNSQCRTTQSYVRALTMDSKKRIGWRFIRIDTSCVCTLTIKRGR
- AKT 1/2/3-P (T308), differentiated SH-SY5Y cells, EC50: 0.255 nM
- TrkB-P (TrkB phosphorylation, AlphaLISA, differentiated SH-SY5Y cells), EC50: 0.43 nM
